# Source: US20190151401A1 (UNIVERSITY OF BRITISH COLUMBIA, published 2019)
# T1: cyclo(CGQKLVG) conjugated to BSA (also: conjugated to BSA)
# T1 construct: BSA carrier is not written as a chain
# T1 peptide: cyclo(CGQKLVG)
# T2: cyclo(CGHHQKG) conjugated to BSA (also: conjugated to BSA)
# T2 construct: HHQK are A-beta residues 13-16; C and G residues are linker; BSA carrier is not written as a chain; also called Cyclo-BSA
# T2 peptide: cyclo(CGHHQKG)
# T3: cyclo(CGHDSGG) conjugated to BSA (also: conjugated to BSA)
# T3 construct: BSA carrier is not written as a chain
# T3 peptide: cyclo(CGHDSGG)
# B1: antibody 305-61 (IgG3, kappa), raised against cyclo(CGQKLVG) (antibody, V domains shown)
# VH: QVQLQQSGAELVRPGASVTLSCKASGYTFTDYEMHWVKQTPVHGLEWIGAIDPETGDTAYNQEFKGKATLTADKSSSTAYMELRSLTSEDSAVYYCTSPIYYDYDWFAYWGHGTLVTVSA
# VL: DIVMSQSPSSLAVSAGEKVTMSCKSSQSLLNNRTRKNYLAWYQQKPGQSPKLLIYWASTRESGVPDRFTGSGSGTDFTLTISSVQAEDLAVYYCKQSYNLRTFGGGTKLEIKR
# notes: Mouse IgG3/kappa; Entries as printed include the leader peptide and a few constant-region residues; also called 7E9.1
# B2: antibody 305-62 (IgG1, kappa), raised against cyclo(CGQKLVG) (antibody, V domains shown)
# VH: QVTLKESGPGILKPSQTLSLTCSFSGFSLSTSGMGVGWIRQPSGKGLEWLAHIWWDDDKYYNPSLKSQLTISKDTSRNQVFLKITSVDTADTATYYCARSITTVVATPFDYWGQGTTLTVSS
# VL: DIVMTQSQKFMSTSVGDRVSITCKASQNVRSAVAWYQQKPGQSPKALIYLASNRHTGVPDRFTGSGSGTDFTLTISNVHSEDLTDYFCLQHWNSPFTFGGGTKLEIKR
# notes: Mouse IgG1/kappa; Entries as printed include the leader peptide and a few constant-region residues
# B3: antibody 301-11 (IgG3, kappa), raised against cyclo(CGHHQKG) (antibody, V domains shown)
# VH: EVQLVESGGGLVKPGGSLKLSCAASGFTFSDYYMYWVRQTPEKRLEWVATISDGGSYTSYPDSVKGRFTISRDNAKNNLYLQMSSLRSEDTAMYYCARDYYGSSSYTSGFAYWGQGTLVTVSA
# VL: DIVMSQSPSSLAVSTGEKVTMSCKSSQSLLNSRTRKNYLAWYQQKPGQSPKLLIYWASTRESGVPDRFTGSGSGTDFTLTISSVQAEDLAVYYCKQSYNLYTFGGGTKLEIK
# notes: Mouse IgG3/kappa; Entries as printed include the leader peptide
# B4: antibody 305-59 (IgG1, kappa), raised against cyclo(CGQKLVG) (antibody, V domains shown)
# VH: EVQLQQSGAELVKPGASVKLSCTVSGFNIKDTYVHWVKQRPEQGLEWIGRIAPASGNTKYAPNFQDKATITADTSSNTAYLQLNSLTSEDTAVYYCARHVYWGQGTLVTVSA
# VL: SIVMTQTPKFLLVSAGDRVTITCKASQSVSNDVVWYQQKPGQSPKLLIYYASNRYTGVPDRFTGSGYGTDFTFTISTVQAEDLAVYFCQQDYISPYTFGGGTKLEIK
# notes: Mouse IgG1/kappa; Entries as printed include the leader peptide; also called 59 (5G1)
# B5: antibody 303-25, raised against cyclo(CGHDSGG) (antibody, V domains shown)
# VH: QVQLQQPGAELVRPGASVKLSCKASGYTFTSYWMNWVKQRPGQGLEWIGMIDPSDSQTHYNQMFKDKATLTVDKSSSTAYLQLSSLTSEDSAVYYCSRGGYWGQGTTLTVSS
# VL: DIQMTQSPSSLSASLGGKVTITCKASQDINNYIAWYQHKPGKGPRQLIYYTSTLQPGIPSRFSGSGSGRDYSFTISDLEPEDIATYYCLQYDNLWTFGGGTKLEIK
# notes: Mouse, kappa; Entries as printed include the leader peptide
# B6: antibody 301-17 (hybridoma-purified, IgG3, kappa), raised against cyclo(CGHHQKG) (antibody, V domains shown)
# VH: QVQLQQPGAELVKPGASVKMSCKASGYSFTSYWINWVKQRPGQGLEWIGDVHPGRGVSTYNAKFKSKATLTLDTSSSTAYMQLSSLTSEDSAVYYCSRSHGNTYWFFDVWGAGTTVTVSS
# VL: DVLMTQTPLSLPVSLGDQASISCRSSQSIVHSNGNTYLEWYLQKPGQSPKLLIYKVSNRFSGVPDRFSGSGSGTDFTLKISRVEAEDLGVYYCFQGSHVPFTFGSGTKLEIKR
# notes: Mouse IgG3/kappa
# B7: recombinant 301-17 IgG2a (antibody, V domains shown)
# VH: QVQLQQPGAELVKPGASVKMSCKASGYSFTSYWINWVKQRPGQGLEWIGDVHPGRGVSTYNAKFKSKATLTLDTSSSTAYMQLSSLTSEDSAVYYCSRSHGNTYWFFDVWGAGTTVTVSS
# VL: DVLMTQTPLSLPVSLGDQASISCRSSQSIVHSNGNTYLEWYLQKPGQSPKLLIYKVSNRFSGVPDRFSGSGSGTDFTLKISRVEAEDLGVYYCFQGSHVPFTFGSGTKLEIKR
# Assays:
# [1] = target: T4, A-beta42 oligomers (synthetic, commercially prepared, SynAging SAS) (human); experiment: cell-based or functional assay
# [2] = target: T1, cyclo(CGQKLVG) conjugated to BSA; experiment: ELISA and SPR on peptide-BSA conjugates
# [3] = target: T2, cyclo(CGHHQKG) conjugated to BSA; experiment: ELISA and SPR on peptide-BSA conjugates
# [4] = target: T3, cyclo(CGHDSGG) conjugated to BSA; experiment: ELISA and SPR on peptide-BSA conjugates
# [5] = target: T4, A-beta42 oligomers (synthetic, …); experiment: ProteOn biosensor, antibody captured or amine-coupled on GLM chip, AbO 12.3 nM to 1 uM; approximate kinetic value
# [6] = target: T2, cyclo(CGHHQKG) conjugated to BSA; experiment: ProteOn biosensor, antibody amine-coupled on GLH chip, cyclo-BSA 111 pM to 9 nM
# Experimental: Cyclo-BSA 3-fold dilutions were used from 9 nM to 111 pM. Assay buffer was PBS-E+0.05% Tween+10 mg/ml BSA.
# T4 sequence (peptide, as listed by the source): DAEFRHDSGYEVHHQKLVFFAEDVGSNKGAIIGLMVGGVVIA
binder,measurement,setting,value
B1,remaining cell viability at a molar ratio of 1:2 (AβO:AB1),[1],80.1 % of control
same,binding result,[2],binds
B2,binding result,[2],binds
B3,binding result,[3],binds
B4,binding result,[2],binds
B5,remaining cell viability at a molar ratio of 1:2 (AβO:AB1),[1],88.8 % of control
same,binding result,[4],binds
B6,Kd,[5],~26.9 nM
B7,Kd,[6],~0.017 nM
same,Kd,[5],16.2 to 19.5 nM
